Data on one protein can be found in article PMC5341072, “Activity screening of environmental metagenomic libraries reveals novel carboxylesterase families” (Scientific Reports, 2017).

Holding throughout (type): biochemical, uncultured organism
Substrate in data set [1]: CC(=O)Oc1ccc([N+](=O)[O-])cc1
Kind of data set: spectrophotometric ester hydrolysis, Michaelis-Menten or Hill fit. The settings on record: metal-dependent; 0.1 mM MnCl2 stated for the Figure 4 and 7 assays. The source says: (§1) spectrophotometric ester hydrolysis, Michaelis-Menten or Hill fit on MGS0169

Substrate in data set [2]: CCC(=O)Oc1cccc2ccccc12
The data set is described as above. Conditions: metal-dependent; 0.1 mM MnCl2 stated for the Figure 4 and 7 assays.
Description: as §1

Substrate in data set [3]: CC(=O)Oc1cccc2ccccc12
The description is as above. Conditions: metal-dependent; 0.1 mM MnCl2 stated for the Figure 4 and 7 assays.
Description: as §1

Substrate in data set [4]: O=C1Nc2ccccc2C1=O
Kind of data set: amidohydrolase activity, Michaelis-Menten or Hill fit. The settings on record: metal-dependent amidohydrolase activity. The text has this:
amidohydrolase activity, Michaelis-Menten or Hill fit on MGS0169

B1: MGS0169 (uncultured organism) (protein)
chain: MAHAEGPALHPHEKLNNWGKWGDDDQRGAANYITPERIVAAARLIQTGKTFSLAIPIDSNGPVFPPRLPPHHTMEITGADYVADPGASPFGKSPIRFADDYIYMPLQGSTQWDALSHGWYGESLYNGVPEAAIRSSGAGGATKLGIENVKTSFLGRGVLVDIVRFKGGSLPEGYTITRADLEGALAKQKSKLLPGDILVIRTGLVESWYDLDPVGRASFFLNPMTGIGSDTVPWIHEQRLAGVAADNIALERVPHERAPELALPVHGNLLRDLGVYIGEIWWLEELAKDCAQDGRYEFFLAAQPLYIPGAVGSPLNPIAVK
notes: N-terminal 6His tag (modified pET15b), E. coli BL21(DE3), Ni-NTA purified; predicted 37 kDa, tetramer; crystal construct 21-341 aa
As to B1, the Km (commonly the concentration of substrate that gives half-maximal velocity) in data set [1] came to 400 ± 290 µM; in data set [2] it was 420 ± 120 µM; in data set [3] it was 490 ± 110 µM; in data set [4] it was 19700 ± 4200 µM. Also, the turnover number (kcat) (commonly the number of substrate molecules converted per active site and unit of time at saturation) in data set [1] came out at 71.2 ± 1.7 s⁻¹; in data set [2], 14.7 ± 1.4 s⁻¹; in data set [3], 14.9 ± 1.2 s⁻¹; in data set [4], 1.9 ± 0.2 s⁻¹. In addition, the specificity constant (kcat/Km) – broadly, the second-order rate constant that governs catalysis at low substrate concentration – in data set [1] stood at 180000 M⁻¹ s⁻¹; in data set [2], 40000 M⁻¹ s⁻¹; in data set [3] it was 30000 M⁻¹ s⁻¹; in data set [4] it was 100 M⁻¹ s⁻¹.
